{"source": "paper PMC4686794", "about": "“Obesity-related known and candidate SNP markers can significantly change affinity of TATA-binding protein for human gene promoters”", "binders": {"B1": {"name": "LEP WT (dsDNA)", "DNA 1": "ATCGGGCCGCTATAAGAGGGGCGGGC", "DNA 2": "GCCCGCCCCTCTTATAGCGGCCCGAT"}, "B2": {"name": "LEP -38a (rs200487063 minor) (dsDNA)", "DNA 1": "ATCGGGCCACTATAAGAGGGGCGGGC", "DNA 2": "GCCCGCCCCTCTTATAGTGGCCCGAT"}, "B3": {"name": "LEP -35g (rs201381696 minor) (dsDNA)", "DNA 1": "ATCGGGCCGCTGTAAGAGGGGCGGGC", "DNA 2": "GCCCGCCCCTCTTACAGCGGCCCGAT"}, "B4": {"name": "GCG WT (dsDNA)", "DNA 1": "AGCTGGAGAGTATATAAAAGCAGTGC", "DNA 2": "GCACTGCTTTTATATACTCTCCAGCT"}, "B5": {"name": "GCG -41g (rs183433761 minor) (dsDNA)", "DNA 1": "AGCTGGAGAGTGTATAAAAGCAGTGC", "DNA 2": "GCACTGCTTTTATACACTCTCCAGCT"}}, "settings_in_all_cases": "protein: recombinant; label: 32P on both strands; blunt", "key": {"[1]": {"molecular_target": "T1, TATA-binding protein (TBP) (Homo sapiens, UniProt P20226 1-339)", "T1 sequence (P20226 whole entry)": "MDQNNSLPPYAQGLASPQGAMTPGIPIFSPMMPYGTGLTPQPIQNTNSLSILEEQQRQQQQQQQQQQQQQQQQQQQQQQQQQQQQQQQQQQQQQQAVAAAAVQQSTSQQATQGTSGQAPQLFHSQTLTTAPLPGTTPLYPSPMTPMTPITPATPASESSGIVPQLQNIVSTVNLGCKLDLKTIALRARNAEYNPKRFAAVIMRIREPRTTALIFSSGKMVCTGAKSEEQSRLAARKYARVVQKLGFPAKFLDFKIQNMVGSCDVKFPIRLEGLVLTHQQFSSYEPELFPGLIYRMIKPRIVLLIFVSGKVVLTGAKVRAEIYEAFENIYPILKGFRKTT", "test": "EMSA (kinetic, kd/ka); 5 mM Mg2+; ka 2.3e3 M-1s-1, kd 1.8e-4 s-1; 20 mM HEPES-KOH pH 7.6, 5 mM MgCl2, 70 mM KCl, 1 mM DTT, 100 ug/mL BSA, 0.01% NP-40, 5% glycerol, 25 C; 0.3 nM active TBP, ODN 10-60 nM"}, "[2]": {"molecular_target": "T1, TATA-binding protein (TBP)", "test": "EMSA (kinetic, kd/ka); 5 mM Mg2+; ka 3.5e3 M-1s-1, kd 1.5e-4 s-1; 20 mM HEPES-KOH pH 7.6, 5 mM MgCl2, 70 mM KCl, 1 mM DTT, 100 ug/mL BSA, 0.01% NP-40, 5% glycerol, 25 C; 0.3 nM active TBP, ODN 10-60 nM"}, "[3]": {"molecular_target": "T1, TATA-binding protein (TBP)", "test": "EMSA (kinetic, kd/ka); 5 mM Mg2+; ka 5.6e3 M-1s-1, kd 13.0e-4 s-1; 20 mM HEPES-KOH pH 7.6, 5 mM MgCl2, 70 mM KCl, 1 mM DTT, 100 ug/mL BSA, 0.01% NP-40, 5% glycerol, 25 C; 0.3 nM active TBP, ODN 10-60 nM"}, "[4]": {"molecular_target": "T1, TATA-binding protein (TBP)", "test": "EMSA (kinetic, kd/ka); 5 mM Mg2+; ka 70e3 M-1s-1, kd 5e-4 s-1; 20 mM HEPES-KOH pH 7.6, 5 mM MgCl2, 70 mM KCl, 1 mM DTT, 100 ug/mL BSA, 0.01% NP-40, 5% glycerol, 25 C; 0.3 nM active TBP, ODN 10-60 nM"}, "[5]": {"molecular_target": "T1, TATA-binding protein (TBP)", "test": "EMSA (kinetic, kd/ka); 5 mM Mg2+; ka 30e3 M-1s-1, kd 6e-4 s-1; 20 mM HEPES-KOH pH 7.6, 5 mM MgCl2, 70 mM KCl, 1 mM DTT, 100 ug/mL BSA, 0.01% NP-40, 5% glycerol, 25 C; 0.3 nM active TBP, ODN 10-60 nM"}}}
{"binder": "B1", "values": [{"measurement": "Kd", "setting": "[1]", "value": 78, "unit": "nM"}]}
{"binder": "B2", "values": [{"measurement": "Kd", "setting": "[2]", "value": 43, "unit": "nM"}]}
{"binder": "B3", "values": [{"measurement": "Kd", "setting": "[3]", "value": 232, "unit": "nM"}]}
{"binder": "B4", "values": [{"measurement": "Kd", "setting": "[4]", "value": 8, "unit": "nM"}]}
{"binder": "B5", "values": [{"measurement": "Kd", "setting": "[5]", "value": 18, "unit": "nM"}]}
